B1: 79 (nucleic acid, listed as Golovinomyces orontii)
chain: ATGTCAGCATCTAGCCTTTCTCAGTCTACAGCTGAGAAAAGACACGAAGAATATCAGTATTTAGATCTGATCTCCGAAATAGTAGAGACAGGGGAGCATCGACCAGATCGAACTGGAACTGGAACCTTTTCTTTGTTCGCGCCAAAACCTTTAAAATTCCAGCTTTCTGAATCTGGAAAGCCGATTCTGCCCCTAATTACAACCAGGCGCATCTTCTTACGTGCTGTAATCACCGAACTTCTCTGGTTCATATCCGGCTCGACCTCCTCCATTCCTCTGGTAGAAGCAGGAATAAAGATTTGGGATGGAAATGGAACCCGTGAATATCTTGATTCGGTTGGTTTATCTCATCGTGATGTTGGAGATCTTGGTCCAATATATGGATTCCAATGGCGTCATTTTGGTGCCGACTACGTTGATGCTAACACTGACTATACTGGGAAAGGGGTTGATCAACTCGCTGAAGTTGTTGCAAAACTCAAGACAAATCCATATGACCGCCGCATTATTCTTACAGCCTGGAACCCGCGGGATCTAAAGTCAATGGCTTTACCGCCTTGTCATCTTCTTGCACAATTTTACGTCTCATTCCCACAAGGTAGTAAATCTGTTGGGACTCTTCACTGTCTTTTATATCAGCGTAGCTGCGACATGGGCCTTGGAGTACCATTTAATATTGCAAGCTATGCCTTACTCACTCATATGTTGGCTCATACATGCGAACTACTGCCTGGGACTTTGACGCACACCATGGGTGATGCACATGTCTATGCCGATCATGTTGAGGCTTTAAAAACACAACTGACACGTGAGCCGCGTCCATTCCCTGAAATTGAGATTAGGAAAGAAAAAGGAGGAAGTATAGACGGCTGGCTTGTCGATGATTTTCTCATCAAAGGCTACGAACCGCACAAGTCTATCTCGATGAAGATGTCGGTGTAA
modifications: listed as DNA
B2: 32 (nucleic acid, listed as Golovinomyces orontii)
chain: GGTTCATCACCTCTAAATTTGTGAAGAGGTTTCTAAAAGATTCATCTCATCTCATAGCCAGAATTTAGACGCTGTATAAACGATGTTTGGGTCAGGATGTCCGATCAGAATGTATCCAAGAGTCAAGCGTAAATTCTGCAGGCTAGATGTATTTCGTCCCATCATGAATCGTAGATACAAAAGCGGACCTTTTGGCTATACGATGGCACAGGCGCTCGTTTACATGAAGCATGGTGAACCAGACGATGTACTCTCTCTTCATCGTCACTCCATTACACCTACACTTCCACCAGATTCTATTTTCTTACGGACACTTGCAAGCCCAATCAATCCAGCCGATATCAACCAAATTCAAGGTGTCTATCCGTTAAAACCAGAATTCTCGCCTCTACTTGGTACACCGCTTCCGAGCGCTGTAGGTGGGAATGAAGGCTGTTTTGAAGTTGTTTCACTCGGCTCTTCAGTGACTGATGTTAAGAAAGGCGACTGGGTGGTGGCAAATACCCCTGCACTCGGCACCTGGCGTACGCATTTGGTTGTACAGAAGTCTGATATTTTGCCCGTAGAGAAAAAAGGGTTAACCGCAACACAAGTTTGTACTGCATCGATCAATCCGCGAACAGCTTACTGCATGTTGAATAACATTGAGAAACTGCAGAAAGGTGATTGGTGGATTCAAAATGGAGCCAACAGTAGCGTGGGTCGTGCCGCAATTCAATTGGGAAAGTTATGGGGCTTTAAATCAATAAATGTCATTAGAGATCGACCAGACGTGGTATCTACCGAGTCCTTGCGGGCTGAATTGTTAGAATTAGGTGCTACACATGTTGTCACAGAAACAGAGCTGCTTGACAGAGGCTTTCGAGAGCTCGTGACGAAATGGACTAATGATAATAATAAGGGAATTAGATTAGGCTTGAACTGTGTTGGGGGTAAGTCTACAACGGCATTGGTAAAATTACTCGGGAAAAGAGGTCATTTAATCACATATGGTGGCATGTCTCGACAACCTCTACAACTTCCAACCAGCCGCCTCATATTTGATGATCTACGTTTTAGTGGCTTCTGGATTAGTCGCTGGTCCGTCGATAATCCTCGGGAAAGTCAGCACATGCTCAACAAAGTTCTGGACCTCATTCGTACAGGTTCTTTGAAGGAAACTCCTCATCACGAAATACTCTGGAATTGGGATACTAAGATTCAAGTACTCAATGAAGGAATTAAAGGTGCACTTCAGGGTTATCGAAACGCCAAAAATATTCTTGTTTACGGAGATACATAAATTTTGAGT
modifications: listed as DNA
B3: 70 (nucleic acid, listed as Golovinomyces orontii)
chain: ATGTCAAGATCCCTTCACAATCTGAGCACCATTCAGAAGCTTTTTCCAATCTTGGGACCATCTCAAATTACTTCTAAGTTTTTGCTATGTTCACGTACATTATTTAGGCAGACTCGCTACAGTTCCCAATTTAATTTGGGCTATACCCGGGCCATTGAAAGGAAACCCTTAACTTTAAAGTCTATTGAATCTTTGTACAAAAGAGAGGAGCCCATCTTGGCACTCACTGCCCACGACTTTCCCAGTGGATATATTGCTGATGAAGCTGAGATTGAAATCGTACTTGTGGGAGACAGCCTGGCCATGGTAGCAATGGGGTTAGAAGATACAAGTGAGATTCTACTTGAAGAGATGCTACTCCATTGTCGCTCTGTTTCTCGAGCTGTGAAGACTGCTTTTACGGTAGGGGATCTTCCTATGGGATCCTATGAAGTATCCCCAGAACAGGCTCTAATTTCTGCTATTCGGATGATTAAGGAAGGTAGAGTAAAAGCTATTAAATTAGAAGGAGGCGCAGAAATGGGCCCAACCATAAAGAAAATAGTTACTGCCGGTATTCCGGTTCTCGGGCATATAGGGTTAACTCCGCAACGACAAAATTCTTTGGGCGGCTTCCGAGTACAAGGAAAGACCTCCAAGAGTGCACTCAAGATTCTTGAGGATGCATTAGCCATACAGGAAGCAGGCTGTTTTGCTGTTGTGATTGAGGCTATACCCGCAGAGGTAGCTACCATAATTACAAAGGAACTTTCAATCCCAACTATCGGTATTGGCGCTGGTAATGGCTGTTCAGGCCAAGTACTAGTTCAGGTTGATATGACTGGAAATTTTCCACCCGACCGTTCGATACCAAAATTTGTCAAAAAGTATTGTGACATTTGGAATGAGAGCTTGATGGGGATACGATCATATCGAGAAGAAACTAAGTGTAGGAAGTTTCCCGCACACGAACACACTTACTCAATCCCTAAAAATGAACTTGCTGAGTTCGAGAGAATACTAGCTTCTAAAGAACACTAG
modifications: listed as DNA
B4: 64 (nucleic acid, listed as Golovinomyces orontii)
chain: ATGGAGGCATGTGTGATCGACGTGGTGGCTACTAGGGTAGACGATTGCGAAACTCCAGCGTCGAAAGATACCTCCAACGCTTGGTGTCATCCAGGAGCTGCCGCTTTCGATTTTCGCAGTGATGTCTTTACTTCACCGACTTGCTCAATGCTCGAAGCAATCAAAAACACAACCTTACTCGATGATGTCTATCAGGCTGATCCTACCACAAATGATCTGGAATCACACTTGGCAGCGCGCACATCTCATGCCGCAGCACTGTTTGTCTTGTCTGGCACTATGGGGAATCAAATAGCTCTACGTTCTCACTTGCAACAACCACCGTATGCAATTCTTTGCGATCATCGAAGTCATATTTTTCAATGGGAAGCGGGCGGCGTTGCAAGTCTCTGCGGTGCACTTGTCAAAACTGTTGTACCAGCAAACGGTGAGTATCTTACTCGGGAAGATATTGAGAGTAATGTTGTGCTTGGTGATGATATTCATAGTACGCCTACTCGGGTTATATCTCTTGAAAATACACTGGGTGGCATTGTAATACCGCTAGAGGAGACGCGACGTATAACGAATTTTGCTCGAGAAAACAATATCAAGGTTCACCTTGATGGTGCACGATTGTGGGAGGCAGTCGCTGCAGGTGCAGGTTCACTTACCGATTATTGTGCTCTGTTTGATAGTGTAAGTCTATGTTTCTCCAAGGGACTCGGAGCACCAGTCGGCAGTATTTTAGTTGGTGGAGAGGCTTTTATCAAACATGCTAGATGGATAAGAAAGTCGATTGGTGGCGGCCTTCGTCAGCCTGGTCTGTTAACAGCAACAGCCAGGGTTGCTCTGGATGAAACGTTTGGAAGTGGCCCTTGGGGTGAAGGCGGAAAGCTAAAAGGCACTCACTTTGTAGCGAAAAGGATAACTGCACTCTGGACGTCGCTAGGTGGGAAACTACTGAGGAGGACCGAGACAAATATGGTTTGGTTAGATCTTGAGGGTTCTAAGATTAGTGTAGAGACGTTTGTGAAAATTGGAGCAGAGCATGGGGTAGCACTCGAAGGTCCAAGGCTAGTGGTGCATTATCAAATTGAAGACGCTGCAGTAGAGAAGTTAAAAGCAGTTTTTGAACAGGTCCTGCTTAAAACCTAG
modifications: listed as DNA

Tested on: G. orontii MGH1
Assay: Spray-induced gene silencing (SIGS), G. orontii spore production on A. thaliana (whole plant and detached leaf assays)
Type: in vivo, Golovinomyces orontii
Conditions: topical dsRNA against G. orontii target (Gor Seq ID); detached leaf assay; n>=3

| Molecule | G. orontii Spore Production on Arabidopsis, Detached Leaf Assay, % reduction [%] |
| --- | --- |
| B1 | 68 |
| B2 | 50 |
| B3 | 46 |
| B4 | 55 |

— patent US20260117244A1, “INHIBITORY RNA FOR THE CONTROL OF PHYTOPATHOGENS” (priority 2021, published 2026)
